Literature values, collected in paper PMC6668730.
Like-named read-outs stand apart in the source and are kept apart here. Each block holds one substance with its values, some of them ahead of it.

Columns and labels:
[1] = biological target: Histone H3 (Homo sapiens) (UniProt P68431)
[2] = biological target: Histone H3 (Homo sapiens) (UniProt P68431); remark: listed apart in the source
[3] = biological target: Histone H3 (Homo sapiens) (UniProt P68431); remark: listed apart in the source
[4] = biological target: Histone H3 (Drosophila melanogaster) (UniProt P02299)
[5] = biological target: Histone H3 (Drosophila melanogaster) (UniProt P02299); remark: listed apart in the source

GLP1 ankyrin repeats, sequence (Q9H9B1 737-1004): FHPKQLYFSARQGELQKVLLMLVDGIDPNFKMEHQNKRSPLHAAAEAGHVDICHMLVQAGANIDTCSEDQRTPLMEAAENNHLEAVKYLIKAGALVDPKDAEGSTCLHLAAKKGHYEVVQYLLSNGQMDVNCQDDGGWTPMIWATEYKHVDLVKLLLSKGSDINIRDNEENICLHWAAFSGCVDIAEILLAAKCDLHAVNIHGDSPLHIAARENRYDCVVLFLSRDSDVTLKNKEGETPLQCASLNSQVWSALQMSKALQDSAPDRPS
G9a ankyrin repeats, sequence (Q96KQ7 649-879): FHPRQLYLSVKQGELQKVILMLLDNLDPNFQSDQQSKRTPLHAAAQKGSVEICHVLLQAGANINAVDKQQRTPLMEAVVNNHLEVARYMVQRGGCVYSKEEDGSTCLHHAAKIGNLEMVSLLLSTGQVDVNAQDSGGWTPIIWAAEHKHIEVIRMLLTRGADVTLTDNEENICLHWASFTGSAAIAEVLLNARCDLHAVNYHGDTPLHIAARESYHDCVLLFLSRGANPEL

- Kd [1]: 2.7 µM
- Kd [2]: 5 µM
Substance: BPTF PHD finger (from UniProt Q12830)

- Kd [3]: 5 µM
- Kd [4]: 7 µM
Substance: GLP1 ankyrin repeats (from UniProt Q9H9B1)

- Kd [5]: 6 µM
Substance: G9a ankyrin repeats (from UniProt Q96KQ7)
